From the Human Domainome abundance scans (Beltran et al. 2025)

B1: Dystrobrevin alpha, residues 235 to 294; numbered along this chain, Q9Y4J8 (parent)
chain: ENVFHPVECSYCHSESMMGFRYRCQQCHNYQLCQDCFWRGHAGGSHSNQHQMKEYTSWKS

Variants of: B1
Assay: abundance fitness (aPCA) (normalised: wild type 0, dead -1); higher = more abundant; growth selection in yeast, the domain comes from the species named
Conditions: Homo sapiens

Abundance fitness of substitutions, site by site:
S14: G -0.11, W -0.416, R 0.042, N -0.003, E -0.074, C -0.086, H -0.081, T -0.026, L -0.153, Y -0.324, P -0.679, Q -0.16, A -0.051, M -0.149, K -0.043, F -0.622, D -0.13, V 0.088
C12: N -0.746, F -1.23, M -1.11, H -0.549, V -1.1, S -1.17, Q -1, A -0.883, D -0.939, T -0.868, I -1.1, K -0.943, G -0.762, E -0.997, L -1.22, P -1.29, R -0.768, W -1.27
E15: S 0.03, A -0.041, D 0.195, C -0.171, G -0.105, Y -0.23, I 0.018, F -0.133, L -0.087, N 0.03, P 0.1, Q 0.079, R 0.054, K -0.022, M 0.074, T 0.034, W -0.104, H 0.078
S10: N -0.183, T -0.162, V -0.746, K -0.592, R -0.476, Q -0.453, P -0.421, M -0.298, E -0.394, Y -0.343, F -0.351, G -0.443, L -0.693, I -0.588, C -0.018
P6: R -0.029, W -0.127, E -0.045, I -0.039, M -0.071, Q -0.191, L -0.176, N 0.049, A 0.07, V -0.089, C -0.137, Y -0.218, F -0.091, G -0.063, D 0.079
G19: S 0.089, Q 0.046, K 0.129, V -0.13, F -0.219, L -0.134, E -0.103, I -0.256, P 0.018, N -0.027, H 0.003, D -0.046, C -0.191, M -0.167, T -0.147, A 0.176, Y -0.248
R21: H 0.165, V -0.207, C -0.092, W -0.02, F -0.188, E -0.07, M 0.063, D -0.436, A -0.02, L 0.058, S 0.138, T 0.088, Y -0.394, K 0.047, I -0.128, G -0.15
V7: K -0.086, H -0.055, E 0.012, M -0.08, W -0.072, F -0.428, S 0, Y -0.161, C 0.004, D -0.012, L -0.045, T -0.048, A 0.063, N 0.154, R -0.036, G -0.085, I -0.023, P -0.009
F20: N 0.217, M -0.004, K 0.31, Y 0.045, P 0.307, G 0.163, S 0.237, A 0.224, I 0.061, D 0.106, W 0.137, Q 0.134, V 0.104, C 0.14, H 0.151, T 0.15
S16: N -0.011, I 0.148, F -0.084, V 0.009, E -0.033, Y -0.304, L 0.023, A -0.049, C -0.092, G -0.128, P -0.029, D 0.012, R 0.06, Q 0.043, M -0.041, W -0.208
